Data: publication PMC12246617, “Cryo-EM structures reveal the PP2A–B55α and Eya3 interaction that can be disrupted by a peptide inhibitor” (The Journal of Biological Chemistry, 2025)

T1: FLAG-hEya3 (human Eya3, full length) (human, UniProt Q99504 1-573)
T1 construct: Eya3, human, full length; cloned as FLAG-hEya3 in pCAG; only residues 65-86 are modelled in the structure; also called full-length Eya3; FLAG-Eya3
T1 sequence (looked up): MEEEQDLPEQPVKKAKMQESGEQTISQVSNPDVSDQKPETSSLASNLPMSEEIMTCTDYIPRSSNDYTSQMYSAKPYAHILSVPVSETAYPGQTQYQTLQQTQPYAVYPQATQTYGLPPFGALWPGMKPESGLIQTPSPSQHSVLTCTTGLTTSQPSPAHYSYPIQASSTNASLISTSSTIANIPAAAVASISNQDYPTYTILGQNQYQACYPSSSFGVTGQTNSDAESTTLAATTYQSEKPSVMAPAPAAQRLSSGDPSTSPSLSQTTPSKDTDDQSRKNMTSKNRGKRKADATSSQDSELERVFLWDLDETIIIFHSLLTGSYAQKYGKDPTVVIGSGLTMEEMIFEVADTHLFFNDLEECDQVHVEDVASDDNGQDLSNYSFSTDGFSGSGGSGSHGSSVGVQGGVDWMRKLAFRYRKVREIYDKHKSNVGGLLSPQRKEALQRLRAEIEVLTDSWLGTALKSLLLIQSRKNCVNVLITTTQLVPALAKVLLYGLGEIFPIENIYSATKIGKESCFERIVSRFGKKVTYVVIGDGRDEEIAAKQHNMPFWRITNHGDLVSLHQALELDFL

B1: His-hB55 (human PP2A regulatory subunit B55α) (natural protein, UniProt P63151 1-447, looked up)
chain: MAGAGGGNDIQWCFSQVKGAVDDDVAEADIISTVEFNHSGELLATGDKGGRVVIFQQEQENKIQSHSRGEYNVYSTFQSHEPEFDYLKSLEIEEKINKIRWLPQKNAAQFLLSTNDKTIKLWKISERDKRPEGYNLKEEDGRYRDPTTVTTLRVPVFRPMDLMVEASPRRIFANAHTYHINSISINSDYETYLSADDLRINLWHLEITDRSFNIVDIKPANMEELTEVITAAEFHPNSCNTFVYSSSKGTIRLCDMRASALCDRHSKLFEEPEDPSNRSFFSEIISSISDVKFSHSGRYMMTRDYLSVKIWDLNMENRPVETYQVHEYLRSKLCSLYENDCIFDKFECCWNGSDSVVMTGSYNNFFRMFDRNTKRDITLEASRENNKPRTVLKPRKVCASGKRKKDEISVDSLDFNKKILHTAWHPKENIIAVATTNNLYIFQDKVN
notes: PP2A regulatory B subunit B55α, human; cloned as His-hB55 in pFASTbac; Labelled on the His tag with RED-Tris-NTA dye for MST; also called His-B55; His-B55α; source: Hi5 insect cells, purified (nickel resin)
B2: FLAG-hB55 (B55α subunit of the PP2A–B55 holoenzyme purified from HEK293 FreeStyle cells) (natural protein, human)
chain: AGAGGGNDIQWCFSQVKGAVDDDVAEADIISTVEFNHSGELLATGDKGGRVVIFQQEQENKIQSHSRGEYNVYSTFQSHEPEFDYLKSLEIEEKINKIRWLPQKNAAQFLLSTNDKTIKLWKISERDKRPEGYNLKEEDGRYRDPTTVTTLRVPVFRPMDLMVEASPRRIFANAHTYHINSISINSDYETYLSADDLRINLWHLEITDRSFNIVDIKPANMEELTEVITAAEFHPNSCNTFVYSSSKGTIRLCDMRASALCDRHSKLFEEPEDPSNRSFFSEIISSISDVKFSHSGRYMMTRDYLSVKIWDLNMENRPVETYQVHEYLRSKLCSLYENDCIFDKFECCWNGSDSVVMTGSYNNFFRMFDRNTKRDITLEASRENNKPRTVLKPRKVCASGKRKKDEISVDSLDFNKKILHTAWHPKENIIAVATTNNLYIFQDKVN
notes: PP2A regulatory B subunit B55α, human; FLAG-hB55 in pCAG; The same chain as the first chain of m7, written alone for the contacts seen in the structures; also called FLAG-B55; B55 subunit

Legend:
[1] = target: T1, FLAG-hEya3 (human Eya3, full length); assay: mass photometry; proteins combined at a molar ratio of 1.5:1 in 20 mM Tris pH 8, 250 mM NaCl, 1 mM MnCl2, 0.5 mM TCEP, on ice, in the presence or absence of 25 μM B55i peptide; diluted to 100 nM before reading (Refeyn TwoMP); settings: both partners purified
[2] = target: T1, FLAG-hEya3 (human Eya3, full length); assay: cryo-EM structure; PP2A–B55 + Eya3: 10 μM purified PP2A–B55 incubated with 15 μM full-length Eya3; 0.1% CHAPSO added before vitrification; 3.7 Å; settings: both partners purified

Row | Binder | binding result [1] | binding result [2]
1 | B1 | binds | 
2 | B2 |  | binds
